Measurements from publication doi:10.1101/2024.06.02.597006 (bioRxiv, 2024).

What was measured:
[1] = biological target: the molecule itself; assay: cryo-EM structure
[2] = biological target: T1, Pex5 (full-length yeast Pex5, 1-612), His-Sumo cleaved off (Saccharomyces cerevisiae, UniProt P35056 1-612); assay: cryo-EM structure
T1 sequence (looked up): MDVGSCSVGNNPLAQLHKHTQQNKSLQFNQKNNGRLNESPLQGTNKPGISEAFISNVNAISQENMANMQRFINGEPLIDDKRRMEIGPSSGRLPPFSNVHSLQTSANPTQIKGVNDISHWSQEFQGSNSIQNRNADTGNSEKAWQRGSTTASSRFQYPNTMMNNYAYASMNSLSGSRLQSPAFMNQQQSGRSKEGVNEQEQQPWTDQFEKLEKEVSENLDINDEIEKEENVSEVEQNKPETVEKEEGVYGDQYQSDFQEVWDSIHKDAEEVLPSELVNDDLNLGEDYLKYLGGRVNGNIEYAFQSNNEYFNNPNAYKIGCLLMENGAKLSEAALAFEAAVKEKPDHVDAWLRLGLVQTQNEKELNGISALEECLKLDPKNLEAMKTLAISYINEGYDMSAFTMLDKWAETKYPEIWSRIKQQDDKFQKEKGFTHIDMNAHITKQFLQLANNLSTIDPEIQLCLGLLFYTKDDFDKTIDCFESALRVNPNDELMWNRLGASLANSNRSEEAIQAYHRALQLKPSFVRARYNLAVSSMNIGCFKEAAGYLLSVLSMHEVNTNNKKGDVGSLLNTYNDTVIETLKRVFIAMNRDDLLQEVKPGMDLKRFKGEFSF

B1: FLAG-Eci1 (yeast delta3, delta2-Enoyl-CoA Isomerase 1) (enzyme, Saccharomyces cerevisiae (yeast), UniProt Q05871 1-280, looked up)
chain: MSQEIRQNEKISYRIEGPFFIIHLMNPDNLNALEGEDYIYLGELLELADRNRDVYFTIIQSSGRFFSSGADFKGIAKAQGDDTNKYPSETSKWVSNFVARNVYVTDAFIKHSKVLICCLNGPAIGLSAALVALCDIVYSINDKVYLLYPFANLGLITEGGTTVSLPLKFGTNTTYECLMFNKPFKYDIMCENGFISKNFNMPSSNAEAFNAKVLEELREKVKGLYLPSCLGMKKLLKSNHIDAFNKANSVEVNESLKYWVDGEPLKRFRQLGSKQRKHRL
stoichiometry N [1]: 6 | stoichiometry N [2]: 6 Eci1 per Pex5
